doi:10.1101/2024.11.04.618112

Target: His10-pA-Tn5 (recombinant protein A-Tn5 transposase with an N-terminal His10-tag) (Escherichia coli) (UniProt Q46731)
Assay: SEC

stoichiometry N: 2
Substance: His10-pA-Tn5 (recombinant protein A-Tn5 transposase with an N-terminal His10-tag) (from UniProt Q46731 1-476) (enzyme)
